Target: mouse complement protein C5 (mouse) (UniProt P06684)
Experiment: cell-based or functional assay

monoclonal anti-C5 antibody BB5.1, sequence (VH): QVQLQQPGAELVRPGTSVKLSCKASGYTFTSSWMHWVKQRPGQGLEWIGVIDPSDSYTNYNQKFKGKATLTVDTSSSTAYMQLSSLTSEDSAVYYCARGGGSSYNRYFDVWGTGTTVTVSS
monoclonal anti-C5 antibody BB5.1, sequence (VL): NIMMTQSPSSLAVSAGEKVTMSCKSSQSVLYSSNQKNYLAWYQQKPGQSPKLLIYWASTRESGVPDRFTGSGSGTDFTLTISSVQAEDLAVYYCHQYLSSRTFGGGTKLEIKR

Substance: Crovalimab (original name SKY59) (antibody)
- 50% Inhibitory Dose, classical pathway haemolysis assay: 1860 ng/mL
- Haemolytic Units (HU), classical pathway haemolysis assay: 1.4 HU

Substance: monoclonal anti-C5 antibody BB5.1
- 50% Inhibitory Dose, classical pathway haemolysis assay: 614 ng/mL
- Haemolytic Units (HU), classical pathway haemolysis assay: 16.3 HU
